We go through one molecule from patent US20230112794A1 (NATIONAL TAIWAN UNIVERSITY, published 2023).

Assay [1] deals with T1, mouse HyIL-6 (mouse IL-6/IL-6Rα complex, R&D systems) (mouse, UniProt P22272 20-357; P08505 25-211, limits assumed).
T1 construct: not shown: linker, if any, is not described for the bought mouse protein
T1 sequence (chain (part 1 of 2), looked up): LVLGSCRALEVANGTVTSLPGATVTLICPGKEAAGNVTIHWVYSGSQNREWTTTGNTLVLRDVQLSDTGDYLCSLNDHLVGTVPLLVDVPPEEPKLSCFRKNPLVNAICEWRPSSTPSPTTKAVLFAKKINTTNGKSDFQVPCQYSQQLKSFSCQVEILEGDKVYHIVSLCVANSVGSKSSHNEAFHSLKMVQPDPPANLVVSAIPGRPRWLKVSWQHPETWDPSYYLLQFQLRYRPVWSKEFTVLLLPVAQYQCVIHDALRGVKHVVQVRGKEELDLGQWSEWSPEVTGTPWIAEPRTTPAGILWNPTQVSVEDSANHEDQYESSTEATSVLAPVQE
T1 sequence (chain (part 2 of 2), looked up): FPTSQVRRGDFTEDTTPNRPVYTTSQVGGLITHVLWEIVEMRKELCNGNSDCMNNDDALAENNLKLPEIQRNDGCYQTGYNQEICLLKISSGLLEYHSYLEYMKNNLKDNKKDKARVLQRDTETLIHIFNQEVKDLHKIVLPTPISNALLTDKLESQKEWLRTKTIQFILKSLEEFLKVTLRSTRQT
Nature of the assay: ELISA, coated mouse HyIL-6 (60 ng/well), serial dilution of purified C14mab [c]. The method, then:
(§1) FIG. 4 illustrates the binding characteristics of purified C14mab. (a) The microplates were coated with human IL-6 (20 ng/well), HyIL-6 (60 ng/well), and IL-6 Ra (40 ng/well). Serial dilutions of C14mab were added for 1 hr at room temperature. The binding ELISA data is graphed with OD₄₅₀ readings and their associated binding percentages vs. log antibody concentration. Data are compiled from three independent experiments. Values represent the mean±SEM. (b) Data were normalized to maximum signal for IL-6 and HyIL-6 individually. EC₅₀ values were obtained by nonlinear regression fitting to a variable slope, four-parameter dose-response model using the GraphPad Prism software (San Diego, Calif., USA). (c) The binding of mouse HyIL-6 (60 ng/well) with C14mab was measured by ELISA as described in (a). Values represent the mean±SEM from three independent experiments.
(An ELISA detects its analyte on a solid surface through an enzyme-linked reagent.)

Assay [2] addresses T2, recombinant human Hyper-IL-6 (HyIL-6), fusion of human sIL-6Rα and human IL-6 (human).
T2 construct: also called human IL-6Rα/IL-6 chimera; fusion protein of sIL-6Rα/IL-6
Nature of the assay: BLI (Octet), C14mab on anti-mouse Fc capture sensor, HyIL-6 1.56-25 nM, 1:1 global fit. The method, then:
(§2) FIG. 5 illustrates the binding kinetics of C14mab. Biolayer interferometry analysis of the binding of C14mab to IL-6 (a) and HyIL-6 (b) was carried out. […] Kinetic parameters were evaluated by using a 1:1 binding model with global fitting. The experimental curves of each concentration (solid line) are shown alongside the fitted curves (dashedline). One representative set of curves is shown from three independent experiments.
(§3) Octet is based on Bio-Layer Interferometry (BLI) for measuring protein-protein interactions. BLI analyzes the interference pattern of white light reflected from two surfaces: a layer of immobilized protein on the biosensor tip and an internal reference layer. The binding between C14mab immobilized on the biosensor tip surface using Biosensor AMC tips (ForteBio, Pall Corporation) and IL-6 (R&D systems) and HyIL-6 (R&D systems) in complex was measured. Interference patterns for the binding to or dissociating from the biosensor were measured in real time to generate a response profile on the Octet® System Octet 96 Red (ForteBio, Pall Corporation). Kinetic parameters were evaluated by using a 1:1 binding model with global fitting of three independent experiments with the Octet Red analysis software.
For orientation: Biolayer interferometry detects binding as a change in optical thickness at a sensor tip.

Assay [3] has as its target T3, recombinant human IL-6 (human, UniProt P05231 30-212).
T3 construct: Bought protein (R&D systems); also called Interleukin-6
Nature of the assay: BLI (Octet), C14mab on anti-mouse Fc capture sensor, IL-6 1.56-25 nM, 1:1 global fit. As for the experimental part: as §2, §3

Assay [4] addresses T3, recombinant human IL-6. Put plainly: indirect ELISA, IL-6 coated at 20 ng/well, four-parameter fit; coated IL-6. As for the experimental part:
as §1

Assay [5] deals with T4, IL-6Rα (soluble IL-6 receptor alpha, R&D systems) (human, UniProt P08887 20-358).
T4 construct: also called IL-6 Ra; sIL-6Rα
T4 sequence (looked up): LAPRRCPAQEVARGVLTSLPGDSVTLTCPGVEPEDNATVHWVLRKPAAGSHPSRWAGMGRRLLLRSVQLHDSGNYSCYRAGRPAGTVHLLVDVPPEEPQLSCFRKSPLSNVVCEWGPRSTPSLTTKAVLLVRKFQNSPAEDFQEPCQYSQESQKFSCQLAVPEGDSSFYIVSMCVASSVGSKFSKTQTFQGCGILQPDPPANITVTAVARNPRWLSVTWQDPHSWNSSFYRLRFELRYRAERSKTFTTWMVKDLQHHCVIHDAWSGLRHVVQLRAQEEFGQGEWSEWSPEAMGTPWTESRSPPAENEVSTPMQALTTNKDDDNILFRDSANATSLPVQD
Nature of the assay: ELISA, coated IL-6Rα (40 ng/well), serial dilution of purified C14mab [a]. As for the experimental part:
as §1

Assay [6] addresses T2, recombinant human Hyper-IL-6 (HyIL-6), …. Put plainly: BLI (Octet), KD on HyIL-6 against KD on IL-6. The method, then:
as §2, §3

The target is the same in assay [7]. Put plainly: indirect ELISA, EC50 on HyIL-6 against EC50 on IL-6. The method, then:
as §1

Assay [8] shares this target. Nature of the assay: indirect ELISA, HyIL-6 coated at 60 ng/well, four-parameter fit; coated human HyIL-6. The method, then: as §1
Assay [9] concerns the target T5, IL-6/IL-6Rα complex (IL-6 bound to sIL-6Rα, not fused) (human, UniProt P08887 20-358; P05231 30-212).
T5 construct: Non-covalent complex; also called IL-6/sIL-6Rα combination; IL-6/sIL-6R combination
Nature of the assay: ELISA, coated sIL-6Rα (50 ng/well), IL-6 (10 ng/well) added, C14mab added without washing off unbound IL-6 [b]. As for the experimental part: FIG. 8 illustrates the epitope of HyIL-6/C14mab interaction. (a) Differential HDX of HyIL-6 upon C14mab binding. […] (b) A scheme depicts the assay procedure (left panel). The microplates were coated with sIL-6 Rα (50 ng/well) in PBS buffer at 4° C. overnight and blocked with 1% BSA in PBS for 1 hr. Then plates were washed with PBS containing 0.05% Tween-20. Upper; without washing group, IL-6 (10 ng/well) was added for 1 hr at room temperature. Then serial dilution concentrations of C14mab were added directly for another 2 hrs. Lower; washing group, IL-6 (10 ng/well) was added for 1 hr at room temperature. After plates were washed with PBS containing 0.05% Tween-20, serial dilution concentrations of C14mab were added directly for another 1 hr. The bound C14mab was determined by ELISA. The binding results with or without washing before C14mab incubation are shown in blue and red, respectively (right panel). One representative assay of 3 is shown.
To further understand the C14mab binding mechanism in HyIL-6, we performed an indirect ELISA assay using C14mab as a detection antibody. Briefly, IL-6Rα was immobilized directly on the plate and then IL-6 was added to the IL-6Rα and allowed to bind. The unbound IL-6 was washed away and the IL-6/IL-6Rα complex was detected by C14mab (FIG. 8(b)).

B1: C14 monoclonal antibody (C14mab) (antibody, IgG1, V domains shown)
VH: EVNLEESGGGLVQPGGSMQLSCAASGFTFSDAWMDWVRQSPEKGLEWVAEVRTKGYYPVTFYAESVKGRFTISRDDSKSSVYLQMNSLRAEDTGIYYCTRPHYGYGYFDVWGAGTTVTVSS
VL: not shown
notes: Early experiments used the C14 hybridoma culture supernatant; also called C14 clone
Broadly, the Kd is the constant that tells how readily two partners part at equilibrium. As a reminder, the koff is a measure of how fast the partners let go of each other. As a reminder, the kon is the second-order rate constant of association. As usually defined, the EC50 is the concentration needed to bring the measured effect to its halfway point. What is called EC50 (read off the curve) is the concentration at which the effect is half-maximal. As to B1, the binding result in [1] and in [5] was “no binding (tested: 10 µg/ml)” in each case. Moreover, the Kd in [2] worked out at 0.286 nM; in the assay with recombinant human IL-6 [3] it was 1.13 nM. Further, the dissociation rate constant (koff) in [2] was found to be 0.000144 s⁻¹; in the assay with recombinant human IL-6 [3], 0.000665 s⁻¹. For the same molecule, the kon in [2] is 498000 M⁻¹ s⁻¹; with recombinant human IL-6 [3] it was 605000 M⁻¹ s⁻¹. Also, the EC50 in the assay with recombinant human IL-6 [4] was determined as 0.0153 µg/mL; in [8], 0.0043 µg/mL. Moreover, the “fold binding strength against IL-6” value in [6] is roughly 4 times. In addition, the “fold stronger EC50 than for IL-6” value in [7] was roughly 3.5 times. In addition, the “EC50 (read off the curve)” value in assay [9] was roughly 0.6 µg/mL.
